{
  "source": "patent US11339383B2",
  "about": "“G proteins” (HEPTARES THERAPEUTICS LIMITED, priority 2016, dated 2022)",
  "key": {"[1]": {"biological_target": "T1, β1AR-84 (Meleagris gallopavo, UniProt P07700, C116L/C358A/D322K/DEL244-271/F327A/F338M/M44C/M90V/V103C)", "T1 construct": "His6 (C); made in house; host or cells: Trichoplusia ni (High Five) insect cells, BaculoGold baculovirus", "T1 sequence (P07700 other isoform, or with tags, fused parts or gaps M44C/M90V/V103C/C116L/DEL244-271/D322K/F327A/F338M/C358A)": "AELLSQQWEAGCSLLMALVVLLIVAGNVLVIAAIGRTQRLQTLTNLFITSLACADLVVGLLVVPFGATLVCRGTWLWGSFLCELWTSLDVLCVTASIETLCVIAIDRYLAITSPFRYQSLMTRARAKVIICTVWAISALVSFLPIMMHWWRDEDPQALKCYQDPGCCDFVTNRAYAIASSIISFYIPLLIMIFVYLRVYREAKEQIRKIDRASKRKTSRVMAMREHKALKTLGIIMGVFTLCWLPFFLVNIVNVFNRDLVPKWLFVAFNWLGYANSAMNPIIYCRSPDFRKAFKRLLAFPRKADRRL", "assay": "Saturation binding assay, ^3H-DHA binding to β1AR-84", "design": "species or system turkey", "details": "insect cell membranes, 20° C.", "protocol": "FIG. 2. Saturation binding data for β1AR constructs. […] Data represent mean±SEM of three independent experiments. Curves shown are from a representative experiment performed in duplicate.\nInsect cells expressing β1AR were resuspended in 1 ml of assay buffer (20 mM HEPES, pH 7.5, 100 mM NaCl), supplemented with Complete EDTA-free protease inhibitors (Roche). Cells were broken by 10 passages through a bent 26 G needle. Cell debris was removed by centrifugation (3000 g for 5 mins at 4° C.). The supernatant was diluted and 2×0.96 ml aliquots taken for each sample. Alprenolol (120 μl) was added to the negative sample (1 mM final concentration) and assay buffer (120 μl) was added to the positive sample. Samples were aliquoted (12×108 μl) into a PCR plate. [^3H]-dihydroalprenolol (12 μl) was added to each well (to give final concentrations in the range: 2.5 nM-2.56 μM). Samples were mixed and incubated at 20° C. for 2 h. Samples (2×50 μl duplicates) were vacuum filtered through 96-well glass fibre filter plates (Merck Millipore), pre-soaked with PEI (0.1%). Each well was washed with assay buffer (3×200 μl). Filters were dried, punched into scintillation vials and 4 ml Ultima Gold scintillant (Perkin Elmer) was added. Radioactivity was quantified by scintillation counting (1 min per sample) using a Tri-Carb counter (Perkin Elmer). Data for negative samples were subtracted from positive samples. […]"}, "[2]": {"biological_target": "A2AR (Homo sapiens, UniProt P29274, N154A)", "sequence (P29274 1-317 N154A)": "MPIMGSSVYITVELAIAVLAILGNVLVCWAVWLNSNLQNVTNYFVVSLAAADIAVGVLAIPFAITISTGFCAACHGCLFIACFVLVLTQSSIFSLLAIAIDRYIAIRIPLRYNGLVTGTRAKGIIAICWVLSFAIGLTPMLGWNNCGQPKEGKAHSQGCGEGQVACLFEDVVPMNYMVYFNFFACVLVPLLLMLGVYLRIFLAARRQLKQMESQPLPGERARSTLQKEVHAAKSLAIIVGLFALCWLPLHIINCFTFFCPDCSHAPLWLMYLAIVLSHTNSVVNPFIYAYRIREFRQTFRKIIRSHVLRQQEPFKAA", "assay": "Thermostability assay of ^3H-NECA-bound A2AR", "description": "The samples were incubated at room temperature for 1 h, then chilled on ice for 30 min. DDM, DM or OG were added to a final concentration of 0.1%, 0.13% or 0.8%, respectively, and samples were incubated on ice for 1 h. Cell debris was removed by centrifugation for 5 min at 20,000×g and the supernatant was aliquoted into PCR strips. Samples were heated to the desired temperature for exactly 30 min, then quenched on ice for 30 min. Samples (50 μl) were loaded onto gel filtration resin packed into a 96-well filter plate (Millipore), which was centrifuged to separate receptor-bound from free radioligand. […] Data were analyzed by nonlinear regression using GraphPad Prism software. Apparent Tm values were derived from sigmoidal dose-response analysis. Results represent the mean±SEM of two independent experiments, performed in duplicate.\nSamples were heated to the desired temperature for exactly 30 min, then quenched on ice for 30 min. Samples (50 μl) were loaded onto gel-filtration resin (Toyopearl HW-40F) packed into a 96-well filter plate (Millipore), which was centrifuged to separate receptor-bound from free radioligand [28]. […] Data were analysed by nonlinear regression using GraphPad Prism software. Apparent Tm values were derived from sigmoidal dose-response analysis performed by non-liner regression. Results represent the mean±SEM of two independent experiments, performed in duplicate."}, "[3]": {"biological_target": "T2, NTSR1 (Rattus norvegicus, UniProt P20789)", "T2 construct": "the wild-type rat NTSR1 (residues 43-396) and a C-terminal His10 tag; hemagglutinin signal peptide (N); Flag (N); His10 (C); made in house; host or cells: Trichoplusia ni insect cells, baculovirus (modified pFastBac1)", "T2 sequence (P20789 43-396)": "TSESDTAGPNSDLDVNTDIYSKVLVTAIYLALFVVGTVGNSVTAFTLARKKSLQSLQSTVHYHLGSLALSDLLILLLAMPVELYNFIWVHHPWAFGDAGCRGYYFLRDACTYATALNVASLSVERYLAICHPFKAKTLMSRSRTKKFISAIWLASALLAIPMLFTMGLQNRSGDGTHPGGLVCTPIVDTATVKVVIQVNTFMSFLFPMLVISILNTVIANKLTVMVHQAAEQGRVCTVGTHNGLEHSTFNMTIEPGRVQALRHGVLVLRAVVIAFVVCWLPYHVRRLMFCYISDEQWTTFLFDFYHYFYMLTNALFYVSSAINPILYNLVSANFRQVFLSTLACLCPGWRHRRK", "assay": "Thermostability assay of ^3H-NTS-bound NTSR1", "type": "biochemical", "details": "DDM-solubilized", "protocol": "The samples were placed on a rotating mixer at 4° C. for 1 hour. Cell debris and non-solubilized material were removed by ultracentrifugation (152,800×g, 4° C., 30 min), and the supernatant containing detergent-solubilized NTSR1 was used to test for thermal stability in the presence of NTS and mini-G proteins. For thermal denaturation curves, the supernatants were diluted 6.67-fold into assay buffer (50 mM TrisHCl pH 7.4, 100 mM NaCl, 1 mM MgCl2) containing 22.5 μM mini-G protein and 10 nM ^3H-NTS and incubated for 1 hour on ice. After addition of apyrase (0.25 units/ml, NEB), the sample was placed on ice for an additional 30 min. Samples (120 μl aliquots) were exposed to different temperatures between 0° C. and 60° C. for 30 min and placed on ice. […] Control reactions on ice were recorded at the start and at the end of each denaturation experiment. The percentage of activity remaining after heat exposure was determined with respect to the unheated control. Data were analyzed by nonlinear regression using a Boltzmann sigmoidal equation in the Prism software (GraphPad)."}},
  "data": [
    {"molecule": "CCCc1ccccc1OCC(O)CNC(C)C", "note": "(stereo not drawn) [^3H-DHA, ^3H-dihydroalprenolol]", "values": [
      {"measurement": "Kd", "setting": "[1]", "result": "20 ± 3", "unit": "nM"}
    ]},
    {"molecule": "Mini-Gs/q58: mini-Gs with final 19 residues of α5 helix changed to those in Gαq (13 mutations) (protein, Mini-Gs/q58) MGHHHHHHENLYFQGIEKQLQKDKQVYRATHRLLLLGADNSGKSTIVKQMRILHGGSGGSGGTSGIFETKFQVDKVNFHMFDVGGQRDERRKWIQCFNDVTAIIFVVDSSDYNRLQEALNDFKSIWNNRWLRTISVILFLNKQDLLAEKVLAGKSKIEDYFPEFARYTTPEDATPEPGEDPRVTRAKYFIRDEFLRISTASGDGRHYCYPHFTCAVDTENARRIFAAVKDTILQLNLKEYNLV", "values": [
      {"measurement": "coupling of mini-Gs/q chimera to A2AR (thermostability assay and SEC)", "setting": "[2]", "result": "did not couple"},
      {"measurement": "shift in the thermostability of NTSR1", "setting": "[3]", "result": "no significant shift"}
    ]}
  ]
}
